The labels stand for the following.
B1: AnkG ANK repeats (residues 38-855, R1-24) [not stated] / Nfasc ankyrin-binding domain (ABD, residues 1187-1214) [not stated] (parent)
chain 1: SDDSLVDYGEGGEGQFNEDGSFIGQYTV
chain 2: KSDANASYLRAARAGHLEKALDYIKNGVDVNICNQNGLNALHLASKEGHVEVVSELLQREANVDAATKKGNTALHIASLAGQAEVVKVLVTNGANVNAQSQNGFTPLYMAAQENHLEVVRFLLDNGASQSLATEDGFTPLAVALQQGHDQVVSLLLENDTKGKVRLPALHIAARKDDTKAAALLLQNDTNADIESKMVVNRATESGFTPLHIAAHYGNINVATLLLNRAAAVDFTARNDITPLHVASKRGNANMVKLLLDRGAKIDAKTRDGLTPLHCGARSGHEQVVEMLLDRAAPILSKTKNGLSPLHMATQGDHLNCVQLLLQHNVPVDDVTNDYLTALHVAAHCGHYKVAKVLLDKKANPNAKALNGFTPLHIACKKNRIRVMELLLKHGASIQAVTESGLTPIHVAAFMGHVNIVSQLMHHGASPNTTNVRGETALHMAARSGQAEVVRYLVQDGAQVEAKAKDDQTPLHISARLGKADIVQQLLQQGASPNAATTSGYTPLHLSAREGHEDVAAFLLDHGASLSITTKKGFTPLHVAAKYGKLEVASLLLQKSASPDAAGKSGLTPLHVAAHYDNQKVALLLLDQGASPHAAAKNGYTPLHIAAKKNQMDIATSLLEYGADANAVTRQGIASVHLAAQEGHVDMVSLLLSRNANVNLSNKSGLTPLHLAAQEDRVNVAEVLVNQGAHVDAQTKMGYTPLHVGCHYGNIKIVNFLLQHSAKVNAKTKNGYTPLHQAAQQGHTHIINVLLQNNASPNELTVNGNTALAIARRLGYISVVDTLKVVTEEIMTTTTITEKHKMNVPETMNEVLDMS
B2: Nfasc 1198 to 1214 WT [not stated] / AnkG ANK repeats (residues 38-855, R1-24) [not stated] (parent)
chain 1: GEGQFNEDGSFIGQYTV
chain 2: B1 chain 2

In the first test the parent is B1. Nature of the test: ITC. Conditions: with Nfasc ankyrin-binding domain (ABD, residues 1187-1214); parent: 1.
On to chain 2 R281A Q314A, for which the ratio to parent was 3.
As for chain 2 M311Q, the ratio to parent came to 8.
On to chain 2 V245Q, for which the ratio to parent worked out at 6.
With chain 2 T302A N304A, the ratio to parent worked out at 11.
As for chain 2 I240Q L273Q, the ratio to parent was 14.
On the same count and under the same terms, the same measure for chain 2 H347A: 8.

In another test the parent is B2. The test is described as follows: ITC. Conditions: with AnkG ANK repeats (residues 38-855, R1-24); parent: 1.
As to chain 1 GEGQFNEDGAFIGQYTV [chain 1 S10A], the ratio to parent is 4.
Same read-out and setting: the same measure for chain 1 GEGQFNEAGSFIGQYTV [chain 1 D8A]: 4; for chain 1 GEGQFNEKGSFIGQYTV [chain 1 D8K]: 23.
With chain 1 GEGQFNEDGSFQGQYTV [chain 1 I12Q], the ratio to parent amounted to 3.
With chain 1 GEGQFNEDGSQIGQYTV [chain 1 F11Q], the ratio to parent is 4.
On the same count and under the same terms, under chain 1 GEGQFNEDGSFIGQYAV [chain 1 T16A] stands 1.
Turning to chain 1 GEGQFAEDGSFIGQYTV [chain 1 N6A], the ratio to parent came to 1.

Source of the values: paper PMC9396398, “Crystal structure of Ankyrin-G in complex with a fragment of Neurofascin reveals binding mechanisms required for integrity of the axon initial segment” (The Journal of Biological Chemistry, 2022).
